Test results reported in paper PMC3539201.

Target: MBP-torsinAΔE (human) (UniProt O14656)
Assay: pull-down

fold nesprin-3α pulled down relative to MBP-torsinA: 3 fold
B1: nesprin-3α (endogenous, mouse fibroblasts) (natural protein)
chain: MTQQPQEDFERSVEDAQAWMKVIQEQLQVNDNTKGPRAALEARLRETEKICQLESEGMVKVELVLRAAEALLATCQEGQKPEILARLRDIKSQWEETVTYMTHCHSRIEWVWLHWSEYLLAQDEFYRWFQKMVVALEPPVELQLGLKEKQWQLSHAQVLLHNVDNQAVLLDRLLEEAGSLFSRIGDPSVDEDAQKRMKAEYDAVKARAQRRVDLLAQVAQDHEQYREDVNEFQLWLKAVVEKVHSCLGRNCKLATELRLSTLQDIAKDFPRGEESLKRLEEQAVGVIQNTSPLGAEKISGELEEMRGVLEKLRVLWKEEEGRLRGLLQSRGDCEQQIQQLEAELGDFKKSLQRLAQEGLEPTVKTATEDELVAQWRLFSGTRAALASEEPRVDRLQTQLKKLVTFPDLQSLSDSVVATIQEYQSMKGKNTRLHNATRAELWQRFQRPLNDLQLWKALAQRLLDITASLPDLASIHTFLPQIEAALTESSRLKEQLAMLQLKTDLLGSIFGQERAATLLEQVTSSVRDRDLLHNSLLQRKSKLQSLLVQHKDFGVAFDPLNRKLLDLQARIQAEKGLPRDLPGKQVQLLRLQGLQEEGLDLGTQIEAVRPLAHGNSKHQQKVDQISCDQQALQRSLEDLVDRCQQNVREHCTFSHRLSELQLWITMATQTLESHQGDVRLWDAESQEAGLETLLSEIPEKEVQVSLLQALGQLVMKKSSPEGATMVQEELRKLMESWQALRLLEENMLSLMRNQQLQRTEVDTGKKQVFTNNIPKAGFLINPQDPIPRRQHGANPLEGHDLPEDHPQLLRDFEQWLQAENSKLRRIITMRVATAKDLRTREVKLQELEARIPEGQHLFENLLRLRPARDPSNELEDLRYRWMLYKSKLKDSGHLLTESSPGELTAFQKSRRQKRWSPCSLLQKACRVALPLQLLLLLFLLLLFLLPAGEEERSCALANNFARSFALMLRYNGPPPT
